# Measured values as given in article PMC10378328, “Tissue Inhibitor of Metalloproteinases-1 Interacts with CD74 to Promote AKT Signaling, Monocyte Recruitment Responses, and Vascular Smooth Muscle Cell Proliferation” (Cells, 2023).
# T1: N-terminal FLAG-tagged human CD74 (human, UniProt P04233 1-296)
# T1 sequence (looked up): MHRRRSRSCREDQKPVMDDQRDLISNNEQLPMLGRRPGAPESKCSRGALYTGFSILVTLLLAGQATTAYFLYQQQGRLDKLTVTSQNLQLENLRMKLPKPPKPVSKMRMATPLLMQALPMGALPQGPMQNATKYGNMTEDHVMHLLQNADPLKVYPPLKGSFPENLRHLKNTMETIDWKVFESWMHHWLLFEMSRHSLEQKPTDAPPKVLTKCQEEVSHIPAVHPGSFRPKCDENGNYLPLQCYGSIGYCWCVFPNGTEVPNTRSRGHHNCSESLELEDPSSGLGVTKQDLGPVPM
# B1: recombinant human TIMP-1 (tissue inhibitor of metalloproteinases-1) (natural protein)
# chain: not shown
# Target: T1, N-terminal FLAG-tagged human CD74
# Experiment: cell-based or functional assay
binder,measurement,value
B1,"arrest of MonoMac6 cells on a monolayer of human aortic endothelial cells under flow, TIMP-1 at 200 and 400 ng/mL, optimal concentration 200 ng/mL",2 fold
